Reference: patent US20250074972A1, “ANTIBODIES AND METHODS FOR GENERATING THE SAME” (priority 2021, published 2025)

Legend:
[1] = system: C. albicans WT strain SC5314; assay: Candida albicans growth inhibition assay; type: cell-based; conditions: OD 405 nm
Method: The antifungal activity of Utr2 scAbs was assessed by measuring the growth of fungal cells in microtitre plates. A growth assay was carried out with C. albicans WT strain SC5314 and using caspofungin as a positive control. A starting concentration of 100 μg/ml was prepared for the test scAbs (B5, C8, D3, 1H3, 1B1 and 1D2) and caspofungin and these were double diluted in a 96 well microtitre plate in designated wells. The wells were inoculated using 50 μl 2×10^6 cells/ml diluted in RPMI-1640 medium and incubated for 24 h and 48 h at 37° C. Cell growth was determined by measuring optical density at 405 nm in a spectrophotometer.

[2] = system: A. fumigatus AF293/FGSC1100 hyphae; assay: Whole cell binding ELISA, A. fumigatus hyphae; design: species or system Aspergillus fumigatus; conditions: starting concentration 100 μg/ml scAb
Method: C. albicans Utr2 shares certain degree of sequence similarity with S. cerevisiae Utr2, S. cerevisiae Crh1 and an Aspergillus fumigatus allergen Aspf9, with highly conserved putative glycosyl hydrolase domains (Alberti-Segui et al., 2004). The cross-reactivity of selected Utr2 scAbs to A. fumigatus was tested by performing a whole cell binding ELISA using C. albicans SC5314 and A. fumigatus AF293/FGSC1100 strains. To induce hyphal formation, wells of a MaxiSorp flat-bottom 96 well plate was coated with approximately 10^6 overnight grown cells diluted in DMEM or RPMI-1640 modified medium containing 10% heat-inactivated foetal calf serum (FCS) and incubated at 37° C. for 2-20 h. Cells were washed three times in PBS+0.05% Tween, blocked with 1.5% bovine serum albumin (BSA), and incubated at room temperature for 1 h. Cells were washed as before and a starting concentration of 100 μg/ml scAb in 1% blocking buffer was added in duplicate in doubling dilutions and incubated at room temperature for 1.5 h. After washing, cells were incubated with anti-human C kappa peroxidase antibody as described previously. Following incubation for 45 min at room temperature, wells were washed and stained with tetramethylbenzidine (TMB) and read at an absorbance of 450 nm in a VersaMax microplate reader (Molecular Devices, USA).

[3] = system: C. albicans WT and Utr2 overexpression strains; assay: Immunofluorescence staining of C. albicans using Utr2 scAbs; type: cell-based, Candida albicans; conditions: scAb 10 μg/ml (1D2 repeated at 50 μg/ml)
Method: Overnight grown C. albicans WT and Utr2 overexpression strains were diluted and left to adhere on a poly-L-lysine glass slide for 1 h. To induce hyphal growth the cells were grown in DMEM medium containing 10% heat-inactivated foetal calf serum (FCS) and incubated at 37° C. for 2 h. Cells were washed three times in Dulbecco's phosphate-buffered saline (DPBS) and fixed with 4% paraformaldehyde at room temperature for 15 minutes. After washing, cells were blocked with 1.5% BSA and incubated for 1 h. Cells were washed as before and stained with Utr2 scAbs at 10 μg/ml for 1 h at room temperature. After washing, cells were stained with FITC-labelled anti-human kappa light chain antibody (1 μg/ml) and incubated at room temperature for 1 h. Cells were washed again and stained with 25 μg/ml of Calcofluor white (CFW) to illuminate chitin-containing structures. Mounting medium was added with a coverslip before images were taken using an UltraVIEW® Vox spinning disk confocal microscope (Perkin Elmer, Waltham, Mass, USA). Calcofluor white stain was viewed at lower brightness (×1) and FITC stain was viewed at higher brightness (×8). Calcofluor white stained the chitin rich cell wall as well as septa of both C. albicans strains.
The immunofluorescence staining was repeated for 1D2 scAb with higher concentration of scAb (50 μg/ml) and FITC-labelled anti-human kappa light chain antibody (5 μg/ml). […]

[4] = after 24 h, top concentration of 100 μg/ml

B1: C8: Utr2 antibody; SEQ ID NO: 18 (protein)
scFv: EVQLVQSGAEVKKPGSSVKVSCKASGGTFSSYAISWVRQAPGQGLEWMGIINPSGGSTSYAQKFQGRVTMTRDTSTSTVYMELSSLRSEDTAVYYCARGTKGKDYYYMDVWGKGTLVTVSSLEGGGGSGGGGSGGGASDIQMTQSPSSLSASVGDRVTITCRASQSISTYLNWYQQKPGTAPNLLIYGASNLQSGVPSRFSGSGSGTDFTLTISSLQPEDFATYYCQQSYSTPLTFGGGTKVDIKR
modifications: C8 Amino Acid Sequence
For B1, the growth inhibition [1, 4] was 40% and the growth inhibition ([1]; after 48 h incubation) was “No further reduction”.

B2: D3: Utr2 antibody; SEQ ID NO: 26 (protein)
scFv: QMQLVQSGAEVKKPGESLKISCKGSGYSFTSYWIGWVRQMPGKGLEWMGIIYPGDSDTRYSPSFQGQVTISADKSISTAYLQWSSLKASDTAMYYCARLKTGDQLPDIWGQGTMVTVSSLEGGGGSGGGGSGGGASDIVMTQTPLSLSVTPGQPASISCKSSQSLLHSDGKTYLYWYLQKPGQPPQLLIYEVSNRFSGVPDRFSGSGSGTDFTLKISRVEAEDVGVYYCMQTIQLPATFGGGTKLEIRR
modifications: D3 Amino Acid Sequence
In the case of B2, the growth inhibition ([1]; after 48 h incubation) is reported as “approximately 40%”.

B3: B5: Utr2 antibody; SEQ ID NO: 12 (protein)
scFv: QVQLVESGGGVVQPGRSLRLSCAASGFTFSSYGMHWVRQAPGKGLEWVAVISYDGSNKYYADSVKGRFTISRDNSKNTLYLQMNSLKTEDTAQYYCVRVRRSGMARGLIDYWGQGTLVTVSSLEGGGGSGGGGSGGGASSYELTQDPAVSVALGQTVRITCQGDILRSYYASWYQQKPGQAPVLVIYGKNNRPSGIPDRFSGSSSGNTASLTITGAQAEDEADYYCNSRDSSGNHKVFGGGTKVTVLG
modifications: B5 Amino Acid Sequence
With B3 the growth inhibition [1, 4] was 40% and the growth inhibition ([1]; after 48 h incubation) was “No further reduction”.

B4: 1C2: Utr2 antibody; SEQ ID NO: 14 (protein)
scFv: QVQLVQSGAEVKKPGASVKVSCKASGYTFTSYAMHWVRQAPGQRLEWMGWINAGNGNTKYSQKFQGRVTITRDTSASTAYMELSSLRSEDTAVYYCARGGAAAGYYMDVWGKGTLVTVSSLEGGGGSGGGGSGGGASNFMLTQPHSVSESPGKTVTISCTRSSGSIASNYVQWYQQRPGSSPTTVIYDDNQRPSGVPDRFSASIDSSSNSASLTISGLKTEDEADYYCQSYDSSIVVFGGGTKLTVLG
modifications: 1C2 Amino Acid Sequence
In the case of B4, the “cross-reactivity to A. fumigatus hyphae” value [2] is reported as “cross-reactive”.

B5: 1B1: Utr2 antibody; SEQ ID NO: 10 (protein)
scFv: QGQLVQSGGGVVQPGRSLRLSCAASGFTFSSYAMHWVRQAPGKGLEWVAVISYDGSNKYYADSVKGRFTISRDNSKNTLYLQMNSLRAEDTAVYYCARIAHPRTRGGKEVEYFQHWGQGTLVTVSSLEGGGGSGGGGSGGGASDIVMTQTPLSSPVTLGQPASISCRSSQSLVYSDGNTYLNWFQQRPGQSPRRLIYKVSNRDSGVPDRFSGSGSGTDFTLKISRVEAEDVGVYYCMQGTHWPPSFGQGTKLEIKR
modifications: 1B1 Amino Acid Sequence
For B5, the immunofluorescence staining [3] was “minimal staining” and the “cross-reactivity to A. fumigatus hyphae” value [2] was “cross-reactive”.

B6: 1D2: Utr2 antibody; SEQ ID NO: 24 (protein)
scFv: QVQLVQSGAEVKKPGASVKVSCKASGYSFTNYDIYWVRQATGQGLEWVGFINPKTGKTGYAQKFQGRVTMSRDTSITTAYMELNSLTSEDTAVYYCASISGYWGQGTLVTVSSLEGGGGSGGGGSGGGASDIVMTQSPLSLPVTLGQPASISCRSSQSLVYSDGNTYLNWFQQRPGQSPRRLIYKVSNRDSGVPDRFSGSGSGTDFTLKISRVEAEDAGLYYCMQGSHWPPTFGQGTKVEIKR
modifications: 1D2 Amino Acid Sequence
In the case of B6, the immunofluorescence staining [3] is reported as “specifically stained the hyphal tips and bud surface” and the “cross-reactivity to A. fumigatus hyphae” value [2] is reported as “cross-reactive”.
